According to paper PMC7079142:
Like-named read-outs stand apart in the source and are kept apart here.

Tests used:
[1] = biological target: T1, StrepII-SUMO-DUX4-His6 (Homo sapiens, UniProt Q9UBX2 1-424); assay: TR-FRET competition
[2] = biological target: T1, StrepII-SUMO-DUX4-His6; assay: EMSA
[3] = biological target: T1, StrepII-SUMO-DUX4-His6; assay: TR-FRET competition; remark: listed apart in the source
[4] = biological target: T1, StrepII-SUMO-DUX4-His6; assay: TR-FRET competition; remark: listed apart in the source
[5] = biological target: T1, StrepII-SUMO-DUX4-His6; assay: TR-FRET competition; remark: listed apart in the source
[6] = biological target: T1, StrepII-SUMO-DUX4-His6; assay: TR-FRET competition; remark: listed apart in the source
[7] = biological target: T2, PROP1-cMyc-DDK (UniProt O75360 1-226); assay: TR-FRET competition
[8] = biological target: T1, StrepII-SUMO-DUX4-His6; assay: TR-FRET competition; remark: listed apart in the source
[9] = biological target: T1, StrepII-SUMO-DUX4-His6; assay: TR-FRET competition; remark: listed apart in the source
[10] = biological target: T1, StrepII-SUMO-DUX4-His6; assay: TR-FRET competition; remark: listed apart in the source
[11] = biological target: T1, StrepII-SUMO-DUX4-His6; assay: TR-FRET competition; remark: listed apart in the source
[12] = biological target: T1, StrepII-SUMO-DUX4-His6; assay: fluorescence polarization
[13] = biological target: T1, StrepII-SUMO-DUX4-His6; assay: TR-FRET competition; remark: listed apart in the source
[14] = biological target: T1, StrepII-SUMO-DUX4-His6; assay: TR-FRET competition; remark: listed apart in the source
[15] = biological target: T2, PROP1-cMyc-DDK; assay: TR-FRET competition; remark: listed apart in the source
[16] = biological target: T1, StrepII-SUMO-DUX4-His6; assay: TR-FRET competition; remark: listed apart in the source
[17] = biological target: T2, PROP1-cMyc-DDK; assay: TR-FRET competition; remark: listed apart in the source
[18] = biological target: T1, StrepII-SUMO-DUX4-His6; assay: TR-FRET competition; remark: listed apart in the source

T1 sequence (Q9UBX2 whole entry): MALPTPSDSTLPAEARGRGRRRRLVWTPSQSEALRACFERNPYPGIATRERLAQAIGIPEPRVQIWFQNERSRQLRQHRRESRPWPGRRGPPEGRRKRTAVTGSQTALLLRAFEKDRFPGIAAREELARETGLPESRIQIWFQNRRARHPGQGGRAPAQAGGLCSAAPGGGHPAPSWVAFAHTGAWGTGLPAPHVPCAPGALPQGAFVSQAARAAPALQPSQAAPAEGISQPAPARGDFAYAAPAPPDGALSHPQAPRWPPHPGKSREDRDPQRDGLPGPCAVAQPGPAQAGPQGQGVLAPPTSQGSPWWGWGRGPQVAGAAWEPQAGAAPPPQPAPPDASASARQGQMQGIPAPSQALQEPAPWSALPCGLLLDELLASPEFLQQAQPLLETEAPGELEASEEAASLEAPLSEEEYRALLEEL
T2 sequence (O75360 whole entry): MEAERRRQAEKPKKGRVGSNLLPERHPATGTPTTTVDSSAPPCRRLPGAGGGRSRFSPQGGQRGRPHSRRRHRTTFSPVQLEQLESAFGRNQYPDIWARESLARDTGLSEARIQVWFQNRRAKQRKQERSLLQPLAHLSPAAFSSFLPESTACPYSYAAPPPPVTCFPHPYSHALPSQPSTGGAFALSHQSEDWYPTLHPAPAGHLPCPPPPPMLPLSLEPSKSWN

GCATAAACTTAATCAAGACCAGGTCATTGATTAACGCTCGTTTGG (structured_DNA) [SELEX#1]
binding result [1]: binds

TGGTGAAGCGCAAGGAAACTTAATCACAAGGTGATTAATTGTTTG (structured_DNA) [SELEX#2]
binding result [1]: binds

AGCTAACCTAATCAACCGCAGGTTGATTAGCCCGTTAGC (structured_DNA) [DUX4_CTT_R7CCC as in T1 for S3B-C]
binding result [2]: binds

GCTAATCTAACCCCTCAACCGCAGGTTGATTAGATTAGC (structured_DNA) [DUX4_TCT_F8CCCC]
binding result [3]: binds

GCTAATCTAATCAACCGCAGGTTGATTAGTTTATTAGC (structured_DNA) [DUX4_TCT_R7TTT]
binding result [4]: binds

GCTAATCTAATCAACCGCAGGTTGATTAGCCCCCATTAGC (structured_DNA) [DUX4_TCT_R7CCCCC]
binding result [5]: binds

GCTAATCTAATCAACCGCAGGTTGATTAGATTAGC (structured_DNA) [DUX4_TCT]
binding signal [6]: ~3 fold higher IC50 than DUX4_CCT

GCTAATTTAATTAACCGCAGGTTAATTAAATTAGC (structured_DNA) [PROP1 aptamer]
binding result [7]: binds

GCTAACCTAATCAACCGCAGGTTGATTAGGTTAGC (structured_DNA) [DUX4_CCT]
binding result [8]: binds

GCTAATCTAATCAACCGCAGGTTGATTAGCCATTAGC (structured_DNA) [DUX4_TCT_R7CC]
binding result [9]: binds

GCTAATCTAACTCAACCGCAGGTTGATTAGATTAGC (structured_DNA) [DUX4_TCT_F8C]
binding result [10]: binds

GCTAATCTAATTCAACCGCAGGTTGATTAGATTAGC (structured_DNA) [DUX4_TCT_F8T]
binding result [11]: binds

GCTAATCTAAGTCAACCGCAGGTTGATTAGATTAGC (structured_DNA) [DUX4_TCT_F8G]
binding result [11]: binds

GCTAATCTAATCAACCGCAGGTTGATTAGCATTAGC (structured_DNA) [DUX4_TCT_R7C]
binding result [5]: binds

GCTAACTTAATCAACCGCAGGTTGATTAGCCCATTAGC (structured_DNA) [Kd aptamer as printed in text and Fig 7]
Kd [12]: ~20 nM

GCTAATCTAATCAACCGCAGGTTGATTAGCCCATTAGC (structured_DNA) [DUX4_TCT_R7CCC]
binding signal [13]: ~10 fold affinity vs loop-free template

GCTAACTTAATCAACCGCAGGTTGATTAACCCGTTAGC (structured_DNA) [DUX4_CTT_R7CCC (DUX4_CTT_loop)]
binding signal [14]: ~21 fold IC50 gain vs DUX4_CTT | binding signal [15]: ~5 fold IC50 gain vs DUX4_CTT | binding signal [16]: ~20 fold affinity vs backbone

GCTAATCTAATCAACCGCAGGTTGATTAGCCCCATTAGC (structured_DNA) [DUX4_TCT_R7CCCC]
binding result [5]: binds

CTAGATTAACCCGTTTACCAAGCGATGGAAACTTAATCTCCATGG (structured_DNA) [SELEX#5]
binding result [1]: binds

GCTAACTTAACTCAACCGCAGGTTGATTAACCCGTTAGC (structured_DNA) [DUX4_CTT_F8C_R7CCC]
binding signal [16]: ~2 fold lower affinity than single-loop DUX4_CTT_R7CCC | binding result [17]: binds

GCTAATCTAACCTCAACCGCAGGTTGATTAGATTAGC (structured_DNA) [DUX4_TCT_F8CC]
binding result [18]: binds

GCTAATCTAACTTCAACCGCAGGTTGATTAGATTAGC (structured_DNA) [DUX4_TCT_F8CT]
binding result [3]: binds

GCTAATCTAACCCTCAACCGCAGGTTGATTAGATTAGC (structured_DNA) [DUX4_TCT_F8CCC]
binding result [3]: binds
